From patent publication US8889621B2, “Inhibiting binding of FGF23 to the binary FGFR-Klotho complex for the treatment of hypophosphatemia” (New York University, priority 2009, dated 2014)
Entries after “also recorded” stand apart in the source; their conditions may differ.

Key:
FGFR1c-βKlotho-FGF19 = target: T1, FGFR1c-βKlotho-FGF19 (UniProt P11362+Q99N32); experiment: SPR specificity: FGFR1c-βKlotho binding to immobilized FGF19^23-216; set-up: species or system human FGFR1c, murine βKlotho, human FGF19; conditions: 10-fold molar excess over FGFR1c-βKlotho
T1 construct: the ectodomain of murine βKlotho (F53 to L995) was expressed in HEK293 cells; FLAG (C); made in house; host or cells: E. coli (FGFR1c, FGF19); HEK293 (βKlotho ectodomain)
T1 sequence (P11362 142-365): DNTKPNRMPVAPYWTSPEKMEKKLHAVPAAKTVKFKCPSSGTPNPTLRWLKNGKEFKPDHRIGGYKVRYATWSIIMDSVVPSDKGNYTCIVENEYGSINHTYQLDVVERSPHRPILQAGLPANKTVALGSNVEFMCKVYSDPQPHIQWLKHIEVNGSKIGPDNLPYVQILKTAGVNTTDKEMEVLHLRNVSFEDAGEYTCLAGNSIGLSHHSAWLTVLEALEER
T1 sequence (Q99N32 53-995): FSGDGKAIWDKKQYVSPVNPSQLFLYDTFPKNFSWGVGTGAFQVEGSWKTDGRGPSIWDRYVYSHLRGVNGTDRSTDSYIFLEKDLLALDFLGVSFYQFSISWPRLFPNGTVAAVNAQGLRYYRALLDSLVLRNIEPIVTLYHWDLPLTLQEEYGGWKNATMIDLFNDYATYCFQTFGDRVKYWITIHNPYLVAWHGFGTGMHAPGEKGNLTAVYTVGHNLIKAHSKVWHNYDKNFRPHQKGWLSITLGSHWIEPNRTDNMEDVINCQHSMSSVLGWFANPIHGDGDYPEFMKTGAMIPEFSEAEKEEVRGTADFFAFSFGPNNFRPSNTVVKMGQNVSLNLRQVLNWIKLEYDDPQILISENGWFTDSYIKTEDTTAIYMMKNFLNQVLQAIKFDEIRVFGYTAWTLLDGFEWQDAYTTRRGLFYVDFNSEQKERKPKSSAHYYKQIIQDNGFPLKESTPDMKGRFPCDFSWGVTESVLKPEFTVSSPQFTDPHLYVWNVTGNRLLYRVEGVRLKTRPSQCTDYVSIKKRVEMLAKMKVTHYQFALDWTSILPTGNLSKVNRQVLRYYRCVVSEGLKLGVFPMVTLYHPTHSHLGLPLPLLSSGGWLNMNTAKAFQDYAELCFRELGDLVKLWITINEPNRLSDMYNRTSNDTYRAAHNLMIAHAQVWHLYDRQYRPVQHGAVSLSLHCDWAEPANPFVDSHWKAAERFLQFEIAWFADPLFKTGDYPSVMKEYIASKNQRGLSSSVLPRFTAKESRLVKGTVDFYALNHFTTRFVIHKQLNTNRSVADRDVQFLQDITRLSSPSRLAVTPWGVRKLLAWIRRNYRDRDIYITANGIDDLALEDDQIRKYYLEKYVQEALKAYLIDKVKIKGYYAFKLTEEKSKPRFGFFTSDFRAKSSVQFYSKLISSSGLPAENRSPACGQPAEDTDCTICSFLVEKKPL

βKlotho-FGF21 = target: T2, βKlotho-FGF21 (Mus musculus, UniProt Q99N32); experiment: SPR specificity: βKlotho binding to immobilized FGF21^29-209; set-up: species or system murine βKlotho, human FGF21; conditions: molar ratio of 2:1 to βKlotho
T2 construct: the ectodomain of murine βKlotho (F53 to L995) was expressed in HEK293 cells; FLAG (C); made in house; host or cells: HEK293 (βKlotho ectodomain); E. coli (FGF21)
T2 sequence (Q99N32 53-995): T1 sequence (Q99N32 53-995)

B1: FGF23^180-251: 72-amino acid C-terminal tail of human FGF23 (S180 to I251), expressed in E. coli (protein, listed as Homo sapiens)
chain: SAEDDSERDPLNVLKPRARMTPAPASCSQELPSAEDNSPMASDPLGVVRGGRVNTHAGGTGPEGCRPFAKFI
Question: Which results are given for B1?
Answer: inhibition of FGFR1c-βKlotho binding to immobilized FGF19 (FGFR1c-βKlotho-FGF19): did not affect; also recorded: no inhibition; inhibition of βKlotho binding to immobilized FGF21 (βKlotho-FGF21): failed to inhibit; also recorded: no inhibition
